Assay results taken from PMC7292828, “Mechanical unfolding of a knotted protein unveils the kinetic and thermodynamic consequences of threading a polypeptide chain” (Scientific Reports, 2020).
Where a chain is given by its changes, count along the chain named. Names and notes keep the numbering of the source.

B1: MJ0366 from Methanocaldococcus jannaschii, wild type (natural protein, UniProt Q57812 1-92, looked up)
chain: MPLVGFMKEKKRATFYLYKNIDGRKLRYLLHKLENVENVDIDTLRRAIEAEKKYKRSITLTEEEEVIIQRLGKSANLLLNCELVKLDEGERA
notes: MJ0366, Methanocaldococcus jannaschii, knotted protein of 92 residues; If it was, ENLYFQ would remain at the C-terminus; also called wild type protein
B2: MJ0366 construct K19C/K73C in the background of C81A (natural protein, Methanocaldococcus jannaschii, UniProt Q57812 1-92, looked up)
chain: B1 chain with K19C, K73C, C81A
notes: MJ0366, Methanocaldococcus jannaschii, 92 residues; double cysteine mutant with C81A; A TEV site ENLYFQG stands between the C-terminus and the His tag; also called F19C/K73C (as printed once in the results)
B3: MJ0366 construct F6C/G89C in the background of C81A (natural protein, Methanocaldococcus jannaschii, UniProt Q57812 1-92, looked up)
chain: B1 chain with F6C, C81A, G89C
notes: MJ0366, Methanocaldococcus jannaschii, 92 residues; double cysteine mutant with C81A; A TEV site ENLYFQG stands between the C-terminus and the His tag; also called K6C/K89C (as printed once in the discussion)
B4: MJ0366 construct F6C/K73C in the background of C81A (natural protein, Methanocaldococcus jannaschii, UniProt Q57812 1-92, looked up)
chain: B1 chain with F6C, K73C, C81A
notes: MJ0366, Methanocaldococcus jannaschii, 92 residues; double cysteine mutant with C81A; A TEV site ENLYFQG stands between the C-terminus and the His tag

Biological target: the molecule itself
Assay: SEC; size exclusion chromatography on a Superdex S75 column (GE Healthcare); dimeric state in solution

Stoichiometry N, 2:
B1, B2, B3, B4
